In article PMC7337494 (The Journal of Cell Biology, 2020):

Target: the molecule itself
Test: AUC

B1: 217-MGD (extended OPA1-MGD, residues 217–580 and 938–960 connected by the artificial linker) (domain or fragment)
chain: not shown
B1 was tested, and the “stoichiometry N” value was 2.
